Reference: patent US20100087368A1
Substitutions are numbered along the chain they refer to. Values belong to the molecule of their own block, whether it stands above or below them.

What was measured:
rat Protein C (rat) = rat Protein C (rat) (UniProt P31394); assay: cell-based or functional assay
human sTM variant F376L = biological target: T1, human sTM variant F376L
T1 chain: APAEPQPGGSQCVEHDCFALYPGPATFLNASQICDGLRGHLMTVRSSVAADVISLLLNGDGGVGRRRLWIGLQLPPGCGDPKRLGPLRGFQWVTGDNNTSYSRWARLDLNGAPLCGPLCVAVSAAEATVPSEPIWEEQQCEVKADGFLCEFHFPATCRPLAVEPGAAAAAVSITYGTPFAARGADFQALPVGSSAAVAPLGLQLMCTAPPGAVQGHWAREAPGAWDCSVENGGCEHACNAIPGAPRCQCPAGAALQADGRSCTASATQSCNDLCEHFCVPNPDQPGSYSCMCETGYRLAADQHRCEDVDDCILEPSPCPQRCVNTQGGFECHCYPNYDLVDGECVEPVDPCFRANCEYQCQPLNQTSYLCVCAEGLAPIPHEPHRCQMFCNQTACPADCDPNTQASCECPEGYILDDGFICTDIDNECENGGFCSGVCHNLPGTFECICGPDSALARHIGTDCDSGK

[1] = biological target: T2, human soluble thrombomodulin (human sTM)
T2 chain: T1 chain with L376F

[2] = biological target: T3, rat soluble thrombomodulin (rat sTM)
T3 chain: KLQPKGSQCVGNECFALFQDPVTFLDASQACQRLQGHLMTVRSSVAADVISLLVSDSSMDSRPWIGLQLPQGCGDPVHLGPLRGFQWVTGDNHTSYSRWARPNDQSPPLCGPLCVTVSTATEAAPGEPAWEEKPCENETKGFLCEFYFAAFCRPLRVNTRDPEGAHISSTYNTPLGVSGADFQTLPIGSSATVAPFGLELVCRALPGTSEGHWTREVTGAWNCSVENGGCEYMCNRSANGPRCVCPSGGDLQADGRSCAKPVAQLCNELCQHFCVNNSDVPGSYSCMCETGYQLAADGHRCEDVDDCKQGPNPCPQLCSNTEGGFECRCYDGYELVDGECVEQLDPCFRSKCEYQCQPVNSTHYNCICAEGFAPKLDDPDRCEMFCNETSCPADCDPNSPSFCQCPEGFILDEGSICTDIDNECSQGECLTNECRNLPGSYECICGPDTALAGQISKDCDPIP

percent PC activation in the presence of human thrombin, against human thrombin with human Protein C as 100% (human aortic endothelial cells, chromogenic substrate) (rat Protein C (rat)): 12.8%
Molecule: endogenous human thrombomodulin on human aortic endothelial cells (from UniProt P07204 19-575)

percent PC activation in the presence of rat thrombin, against human thrombin with human Protein C as 100% (human aortic endothelial cells, chromogenic substrate) (rat Protein C (rat)): 0%
Molecule: endogenous human thrombomodulin on human aortic endothelial cells (from UniProt P07204 19-575) (receptor)

B1: rat Protein C (protein)
chain: ANSFLEEVRAGSLERECMEEICDFEEAQEIFQNVEDTLAFWIKYFDGDQCSTPPLDHQCDSPCCGHGTCIDGLGGFSCSCDKGWEGRFCQQEMGFQDCRVKNGGCYHYCLEETRGRRCRCAPGYELADDHMHCRPTVNFPCGKLWKRTDKKRKNFKRDIDPEDEELELGPRIVNGTLTKQGDSPWQAILLDSKKKLACGGVLIHTSWVLTAAHCLESSKKLTVRLGEYDLRRRDPWELDLDIKEVLVHPNYTRSNSDNDIALLRLSQPATLSKTIVPICLPNSGLAQELSQAGQETVVTGWGYQSDKVKDGRRNRTFILTFIRIPLAARNDCMQVMNNVVSENMLCAGIIGDTRDACDGDSGGPMVVFFRGTWFLVGLVSWGEGCGHLNNYGVYTKVGSYLKWIHSYIGERDVSLKSPKL
Vmax(mOD405/min) of rat Protein C activation in the presence of rat thrombin (chromogenic substrate S2366) (human sTM variant F376L): TLD
Vmax(mOD405/min) of rat Protein C activation in the presence of rat thrombin (chromogenic substrate S2366) [1]: 3.1 mOD405/min
Vmax(mOD405/min) of rat Protein C activation in the presence of rat thrombin (chromogenic substrate S2366) [2]: 47.1 mOD405/min
